Laboratory results from US20140086936A1.

How the values were obtained:
[1] = target: T1, Recombinant purified human matriptase (amino acids 596-855) (human), Q9Y5Y6; test: enzyme inhibition, fluorogenic substrate Boc-Gln-Ala-Arg-AMC, Morrison tight-binding fit
T1 chain: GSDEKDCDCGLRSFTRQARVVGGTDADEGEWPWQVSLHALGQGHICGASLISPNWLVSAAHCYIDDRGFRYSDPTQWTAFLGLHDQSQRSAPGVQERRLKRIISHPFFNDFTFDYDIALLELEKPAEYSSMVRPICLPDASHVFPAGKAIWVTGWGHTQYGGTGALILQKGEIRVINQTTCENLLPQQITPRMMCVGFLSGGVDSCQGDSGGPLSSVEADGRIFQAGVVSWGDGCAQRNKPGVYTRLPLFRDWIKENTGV

[2] = target: T1, Recombinant purified human matriptase …; test: ratio of Ki values, enzyme inhibition
[3] = target: T1, Recombinant purified human matriptase …; test: enzyme inhibition, 1 nM matriptase, 1 µM inhibitor, Boc-Gln-Ala-Arg-AMC 50 µM
[4] = target: thrombin; test: enzyme inhibition, selectivity profile, mixed model fit
[5] = target: T1, Recombinant purified human matriptase …; test: enzyme inhibition, 1 nM enzyme, Boc-Gln-Ala-Arg-AMC substrate
[6] = target: hepsin (human), P05981; test: as above
Chain of hepsin (human), P05981 (P05981 45-417 limits assumed): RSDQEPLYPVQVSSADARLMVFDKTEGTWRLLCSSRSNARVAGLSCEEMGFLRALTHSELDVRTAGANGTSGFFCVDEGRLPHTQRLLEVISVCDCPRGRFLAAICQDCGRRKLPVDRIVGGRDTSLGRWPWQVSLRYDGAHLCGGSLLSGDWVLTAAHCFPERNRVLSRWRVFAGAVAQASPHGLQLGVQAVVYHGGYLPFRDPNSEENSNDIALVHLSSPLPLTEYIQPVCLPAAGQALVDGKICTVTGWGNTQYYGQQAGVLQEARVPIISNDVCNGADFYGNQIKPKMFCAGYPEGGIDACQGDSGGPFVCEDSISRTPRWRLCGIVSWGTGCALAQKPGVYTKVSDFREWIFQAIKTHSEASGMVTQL

[7] = target: Bovine trypsin (bovine), P00760; test: enzyme inhibition, selectivity profile, Morrison tight-binding fit
Chain of Bovine trypsin (bovine), P00760 (P00760 24-246): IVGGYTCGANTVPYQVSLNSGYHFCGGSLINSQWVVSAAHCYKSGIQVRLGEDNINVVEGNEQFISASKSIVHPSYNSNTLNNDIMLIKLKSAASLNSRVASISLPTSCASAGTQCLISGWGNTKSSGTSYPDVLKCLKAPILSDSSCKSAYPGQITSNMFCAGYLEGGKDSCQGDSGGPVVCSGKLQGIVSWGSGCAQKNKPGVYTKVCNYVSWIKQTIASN

[8] = target: T2, TMPRSS11D, O60235; test: as above
T2 chain: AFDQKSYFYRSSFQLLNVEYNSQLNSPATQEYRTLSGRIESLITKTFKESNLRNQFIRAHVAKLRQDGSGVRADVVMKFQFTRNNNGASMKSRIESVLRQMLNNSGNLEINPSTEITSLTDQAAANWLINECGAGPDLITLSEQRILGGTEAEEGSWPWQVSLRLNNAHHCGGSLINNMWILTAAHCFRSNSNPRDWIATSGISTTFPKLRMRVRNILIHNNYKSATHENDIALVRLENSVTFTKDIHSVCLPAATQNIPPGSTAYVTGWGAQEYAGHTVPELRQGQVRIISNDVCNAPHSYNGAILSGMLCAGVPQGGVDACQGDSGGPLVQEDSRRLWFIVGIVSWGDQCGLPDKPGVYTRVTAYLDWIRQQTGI

[9] = target: T3, matriptase-2 (human), Q8IU80; test: as above
T3 chain: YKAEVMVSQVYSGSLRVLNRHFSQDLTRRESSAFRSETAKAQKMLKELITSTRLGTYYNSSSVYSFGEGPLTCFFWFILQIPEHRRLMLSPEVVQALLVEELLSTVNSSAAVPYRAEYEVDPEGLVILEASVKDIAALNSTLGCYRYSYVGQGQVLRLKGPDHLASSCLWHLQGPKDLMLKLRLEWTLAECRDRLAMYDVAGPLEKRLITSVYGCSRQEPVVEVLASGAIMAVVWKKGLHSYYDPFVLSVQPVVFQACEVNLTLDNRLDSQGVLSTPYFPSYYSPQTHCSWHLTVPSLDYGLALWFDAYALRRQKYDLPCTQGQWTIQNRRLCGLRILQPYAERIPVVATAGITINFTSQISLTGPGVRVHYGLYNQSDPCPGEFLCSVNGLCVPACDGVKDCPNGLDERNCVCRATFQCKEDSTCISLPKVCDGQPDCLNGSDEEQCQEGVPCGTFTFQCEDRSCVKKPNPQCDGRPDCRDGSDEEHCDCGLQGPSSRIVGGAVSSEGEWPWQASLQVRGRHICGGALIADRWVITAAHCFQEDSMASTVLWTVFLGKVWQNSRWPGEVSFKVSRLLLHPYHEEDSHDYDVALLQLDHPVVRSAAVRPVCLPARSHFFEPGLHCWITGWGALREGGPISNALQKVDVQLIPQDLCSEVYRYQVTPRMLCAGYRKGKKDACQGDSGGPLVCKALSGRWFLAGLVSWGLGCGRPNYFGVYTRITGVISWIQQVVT

[10] = target: T1, Recombinant purified human matriptase …; test: enzyme inhibition, fluorogenic substrate Boc-Gln-Ala-Arg-AMC, mixed model fit

B1: R-Q-A-(D)R ketobenzothiazole (compound 7) (peptide)
peptide: RQAR
modifications: not checked
Ki [1]: 4.6 nM

B2: RQAK-ketobenzothiazole (peptide)
peptide: RQAK
modifications: not checked
change of Ki relative to compound 1 (orders of magnitude) [2]: 3 | percent inhibition of matriptase activity at 1 µM [3]: 25% | Ki [1]: 9.5 nM

B3: RQAR-ketobenzothiazole (peptide)
peptide: RQAR
modifications: not checked
Ki [4]: 637 nM | IC50 [5]: 29 nM | IC50 [6]: 540 nM | Ki [7]: 0.97 nM | Ki [8]: 8.4 nM | Ki [9]: 3.3 nM

B4: reduced form of RQAR-ketobenzothiazole (peptide)
peptide: RQAR
modifications: not checked
Ki [10]: 6120 nM
